Test results taken from patent US20210113649A1 (UNIVERSITY OF FLORIDA RESEARCH FOUNDATION, published 2021).

B1: SREBP2 mature form, endogenous (other, human, UniProt Q12772 1-484, looked up)
chain: MDDSGELGGLETMETLTELGDELTLGDIDEMLQFVSNQVGEFPDLFSEQLCSSFPGSGGSGSSSGSSGSSSSSSNGRGSSSGAVDPSVQRSFTQVTLPSFSPSAASPQAPTLQVKVSPTSVPTTPRATPILQPRPQPQPQPQTQLQQQTVMITPTFSTTPQTRIIQQPLIYQNAATSFQVLQPQVQSLVTSSQVQPVTIQQQVQTVQAQRVLTQTANGTLQTLAPATVQTVAAPQVQQVPVLVQPQIIKTDSLVLTTLKTDGSPVMAAVQNPALTALTTPIQTAALQVPTLVGSSGTILTTMPVMMGQEKVPIKQVPGGVKQLEPPKEGERRTTHNIIEKRYRSSINDKIIELKDLVMGTDAKMHKSGVLRKAIDYIKYLQQVNHKLRQENMVLKLANQKNKLLKGIDLGSLVDNEVDLKIEDFNQNVLLMSPPASDSGSQAGFSPYSIDSEPGSPLLDDAKVKDEPDSPPVALGMVDRSRILL
notes: domain: mature form (N-terminal domain released by cleavage); also called mature SREBP2
B2: FLAG-SREBP2 (mature) (other, UniProt Q12772 1-481, looked up)
chain: MDDSGELGGLETMETLTELGDELTLGDIDEMLQFVSNQVGEFPDLFSEQLCSSFPGSGGSGSSSGSSGSSSSSSNGRGSSSGAVDPSVQRSFTQVTLPSFSPSAASPQAPTLQVKVSPTSVPTTPRATPILQPRPQPQPQPQTQLQQQTVMITPTFSTTPQTRIIQQPLIYQNAATSFQVLQPQVQSLVTSSQVQPVTIQQQVQTVQAQRVLTQTANGTLQTLAPATVQTVAAPQVQQVPVLVQPQIIKTDSLVLTTLKTDGSPVMAAVQNPALTALTTPIQTAALQVPTLVGSSGTILTTMPVMMGQEKVPIKQVPGGVKQLEPPKEGERRTTHNIIEKRYRSSINDKIIELKDLVMGTDAKMHKSGVLRKAIDYIKYLQQVNHKLRQENMVLKLANQKNKLLKGIDLGSLVDNEVDLKIEDFNQNVLLMSPPASDSGSQAGFSPYSIDSEPGSPLLDDAKVKDEPDSPPVALGMVDRSR
notes: domain: mature form; also called mature SREBP2 (Plasmid #26807); not shown: FLAG tag

Key:
[1] = biological target: T1, DAXX (death domain-associated protein), endogenous (human, UniProt Q9UER7 1-740); assay: IP of MDA-MB-231 or PC3 cell extracts with an anti-DAXX mAb, immunoblot for SREBP2 (M, mature)
T1 construct: Endogenous protein pulled down with an anti-DAXX mAb or co-precipitated with FLAG-SREBP2; also called endogenous DAXX
Text: FIGS. 2A to 2E show DAXX binds to SREBP2. […] MDA-MB-231 or PC3 cell extracts were subjected to IP with a control (IgG) or an anti-DAXX monoclonal antibody. The immunoprecipitated SREBP2 was detected. P, precursor; M, mature SREBP2. FIGS. 2B, 2C, and 2D show there are two independent binding sites in DAXX for mature SREBP2. […] The cell lysates were subjected to FLAG IP. […] HC: IgG heavy chain. *: non-specific band. FIG. 2E is a schematic drawing of DAXX-SREBP2 interactions. The two independent SREBP2-binding sites are depicted. Also shown is the sequence of aa 327-335 within the DAXX HBD critical for the DAXX-SREBP2 interactions. SIM: SUMO-interacting motif; DHB: DAXX helical bundle; HBD: histone-binding domain; PEST: proline, glutamic acid, serine, and threonine-rich sequence. Numbers refer to aa residue positions in the DAXX protein. Note that the irrelevant lanes in the same blots (between the input and IP samples in the PC3 blot in panel A, between lanes 4 and 5, and lanes 12 and 13 in panel B, and between lanes 1 and 2 in panel D) are left out.
Immunoprecipitation (IP) of total cell extracts with anti-DAXX antibody evidenced co-precipitation of two SREBP2 proteins (FIG. 2A) that correspond to the precursor (P) and the mature (M) forms of SREBP2. […]

GFP-DAXX S671A = biological target: T2, GFP-DAXX S671A (human, UniProt Q9UER7 1-740); assay: anti-FLAG IP of 293T cells cotransfected with GFP-DAXX constructs and FLAG-SREBP2 (FIG. 6A)
T2 construct: also called S671A mutant; not shown: GFP from the pEGFP-C2 vector
Text: (§1) FIGS. 6A to 6H show mutation of DAXX phosphorylation sites disrupts DAXX-SREBP2 interaction, impairs lipogenesis and tumor growth. […] The GFP-wt DAXX was transfected alone in the absence of FLAG-SREBP2 as a control (lane 7). The lysates of transfected cells were subjected to IP with an anti-FLAG antibody, Both DAXX and FLAG-SREBP2 were detected in immunoprecipitates and input lysates. […] The precipitated DNAs were subjected to qPCR with primers specific to promoter regions of the indicated genes. qPCRs for the 3′ UTR of the FASN and ACACA genes serve as negative control. […] ATRX qRT-PCR serves as a control for genes not regulated by SREBPs. […] Cells were serum-starved for 24 h. DMSO or a mTOR inhibitor (0.1 μM final concentration) was added for 5 h before cell lysis. […] RNAs were isolated from cells cultured in serum-free DMEM for 24 h as in FIG. 6D.

GFP-DAXX S690A = biological target: T3, GFP-DAXX S690A (human, UniProt Q9UER7 1-740); assay: as above
T3 construct: also called S690A mutant; not shown: GFP from the pEGFP-C2 vector
Text: as §1

GFP-DAXX S495A = biological target: T4, GFP-DAXX S495A (human, UniProt Q9UER7 1-740); assay: as above
T4 construct: also called S495A mutant; not shown: GFP from the pEGFP-C2 vector
Text: as §1

GFP-DAXX S668A/S671A = biological target: T5, GFP-DAXX S668A/S671A (human, UniProt Q9UER7 1-740); assay: as above
T5 construct: also called S668A/S671A mutant; not shown: GFP from the pEGFP-C2 vector
Text: as §1

T1 sequence (Q9UER7 whole entry, the tested form may be a part): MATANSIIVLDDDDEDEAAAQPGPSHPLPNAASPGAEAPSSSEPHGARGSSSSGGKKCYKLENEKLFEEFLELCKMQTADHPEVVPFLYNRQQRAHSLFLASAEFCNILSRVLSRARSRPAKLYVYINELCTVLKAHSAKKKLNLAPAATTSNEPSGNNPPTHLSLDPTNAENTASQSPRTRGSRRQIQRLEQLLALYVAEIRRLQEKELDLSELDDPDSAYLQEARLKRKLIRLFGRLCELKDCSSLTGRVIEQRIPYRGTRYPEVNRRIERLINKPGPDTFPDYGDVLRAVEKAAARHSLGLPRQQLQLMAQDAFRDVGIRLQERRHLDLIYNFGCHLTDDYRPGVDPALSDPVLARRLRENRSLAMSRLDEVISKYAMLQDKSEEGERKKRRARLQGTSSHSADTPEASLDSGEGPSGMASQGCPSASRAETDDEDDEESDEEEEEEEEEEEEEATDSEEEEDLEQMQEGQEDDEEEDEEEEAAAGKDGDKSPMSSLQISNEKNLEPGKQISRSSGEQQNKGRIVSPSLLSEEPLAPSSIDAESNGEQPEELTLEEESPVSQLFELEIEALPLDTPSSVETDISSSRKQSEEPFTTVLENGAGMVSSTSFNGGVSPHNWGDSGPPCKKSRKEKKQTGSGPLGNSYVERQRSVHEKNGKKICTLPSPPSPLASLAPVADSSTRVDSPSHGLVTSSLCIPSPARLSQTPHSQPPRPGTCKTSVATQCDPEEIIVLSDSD
T5 sequence (Q9UER7 whole entry S668A/S671A): as the sequence (Q9UER7 whole entry, the tested form may be a part) above, with S668A, S671A counted along it
T2 sequence (Q9UER7 whole entry S671A): as the sequence (Q9UER7 whole entry, the tested form may be a part) above, with S671A counted along it
T4 sequence (Q9UER7 whole entry S495A): as the sequence (Q9UER7 whole entry, the tested form may be a part) above, with S495A counted along it
T3 sequence (Q9UER7 whole entry S690A): as the sequence (Q9UER7 whole entry, the tested form may be a part) above, with S690A counted along it

Binder	binding result [1]	binding result (GFP-DAXX S671A)	binding result (GFP-DAXX S690A)	binding result (GFP-DAXX S495A)	binding result (GFP-DAXX S668A/S671A)
B1	binds				
B2		no binding	no binding	no binding	no binding
